Patent US20120121591A1 (priority 2009, published 2012)
Read-outs that look alike come from different tables or passages of the source. Positions of bridges follow the written chain, without caps; N, C: chain ends. Non-standard residues stand in square brackets, D forms with d. Residues, ends and D or L forms follow the SMILES beside them. Nva = CCC[C@H](N)C(=O)O

How the values were obtained:
hKv1.5 = hKv1.5 (Homo sapiens, UniProt P22460); conditions: read-out: Kv1.5 IC50; PatchXpress
hKv1.7 = hKv1.7 (Homo sapiens, UniProt Q96RP8); assay type: cell-based; conditions: PatchXpress; read-out: Kv1.7 IC50
Method: (§1) Kv1.1, Kv1.2, Kv1.3, Kv1.4, Kv1.6 and Kv1.7, PatchXpress®, planar patch-clamp electrophysiology. Ion channel currents were recorded at room temperature using PatchXpress® 7000A electrophysiology system from MDC using methods and cells described in Example 1 above.

hKv1.4 = hKv1.4 (Homo sapiens, UniProt P22459); assay type: cell-based; conditions: PatchXpress; read-out: Kv1.4 IC50
Method: as §1

hKv1.2 = hKv1.2 (Homo sapiens, UniProt P16389); assay type: cell-based; conditions: PatchXpress; read-out: Kv1.2 IC50
Method: as §1

hKv1.6 = hKv1.6 (Homo sapiens, UniProt P17658); assay type: cell-based; conditions: PatchXpress; read-out: Kv1.6 IC50
Method: as §1

human Kv1.3 = human Kv1.3 (Homo sapiens, UniProt P22001); assay type: cell-based; conditions: read-out: Kv1.3 IC50, whole cell patch clamp
[1] = system: rat T effector memory cell line, PAS; assay type: cell-based; conditions: read-out: IC50 inhibition of myelin-specific proliferation of PAS T cells
[2] = system: IFN-g secretion from T cells in human whole blood; assay type: cell-based
[3] = system: IL-2 secretion from T cells in human whole blood; assay type: cell-based
[4] = assay type: in vivo, rat
Description: Single subcutaneous doses were delivered to animals and serum was collected at various time points after injection. Studies in rats, dogs (beagles), and cynomolgus monkeys involved two to three animals per dose group, with blood and serum collection occurring at various time points over the course of the study. Male Sprague-Dawley (SD) rats (about 0.3 kg), male beagles (about 10 kg) and male cynomolgus monkeys (about 4 kg) were used in the studies described herein (n=3 animals per dose group). Approximately 5 male CD-1 mice were used per dose and time point in our mouse pharmacokinetic studies. Serum samples were stored frozen at −80° C., until analysis in an enzyme-linked immunosorbent assay (ELISA).
Single subcutaneous doses were delivered to animals and serum was collected at various time points after injection. Three animals were used per dose group, with blood and serum collection occurring at various time points over the course of the study. Serum samples were stored frozen at −80° C., until analysis in an enzyme-linked immunosorbent assay (ELISA). […] A brief description of these ELISA protocols is provided: […]

hKv1.3 = hKv1.3 (Homo sapiens, UniProt P22001); test: cell-based; assay type: cell-based
hKv1.1 = hKv1.1 (Homo sapiens, UniProt Q09470); test: cell-based; conditions: Kv1.1 (IWQ) IC50 (nM, Avg)
[5] = Sprague-Dawley rats, single SC 6 mg/kg

Chain of hKv1.3 (P22001 whole entry): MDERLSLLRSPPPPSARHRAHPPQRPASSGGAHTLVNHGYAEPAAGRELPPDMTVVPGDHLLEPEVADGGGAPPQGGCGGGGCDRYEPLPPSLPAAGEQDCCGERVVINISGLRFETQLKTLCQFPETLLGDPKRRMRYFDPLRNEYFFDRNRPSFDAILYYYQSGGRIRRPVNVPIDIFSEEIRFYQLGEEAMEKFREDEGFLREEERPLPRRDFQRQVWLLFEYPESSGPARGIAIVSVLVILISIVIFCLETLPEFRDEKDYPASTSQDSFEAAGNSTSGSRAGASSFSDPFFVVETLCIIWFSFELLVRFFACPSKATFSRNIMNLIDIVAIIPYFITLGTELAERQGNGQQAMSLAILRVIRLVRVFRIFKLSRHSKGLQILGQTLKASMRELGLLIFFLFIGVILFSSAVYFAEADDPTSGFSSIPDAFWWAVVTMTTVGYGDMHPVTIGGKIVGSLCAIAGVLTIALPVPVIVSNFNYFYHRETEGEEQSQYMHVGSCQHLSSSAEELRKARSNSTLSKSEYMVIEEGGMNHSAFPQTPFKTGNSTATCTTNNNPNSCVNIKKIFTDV
Chain of hKv1.2 (P16389 whole entry): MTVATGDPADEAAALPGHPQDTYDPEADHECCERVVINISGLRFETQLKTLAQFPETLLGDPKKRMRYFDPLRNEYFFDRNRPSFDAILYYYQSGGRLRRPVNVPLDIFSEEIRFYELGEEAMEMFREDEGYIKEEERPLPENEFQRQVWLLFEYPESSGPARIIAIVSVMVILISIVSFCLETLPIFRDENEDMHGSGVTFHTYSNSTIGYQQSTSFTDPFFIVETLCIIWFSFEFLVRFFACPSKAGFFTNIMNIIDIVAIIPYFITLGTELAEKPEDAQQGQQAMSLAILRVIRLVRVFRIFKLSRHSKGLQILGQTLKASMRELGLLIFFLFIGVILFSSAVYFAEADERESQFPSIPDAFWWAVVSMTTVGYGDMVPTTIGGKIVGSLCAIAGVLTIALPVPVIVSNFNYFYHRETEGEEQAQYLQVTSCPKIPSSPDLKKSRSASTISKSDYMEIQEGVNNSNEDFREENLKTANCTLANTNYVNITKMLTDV
Chain of human Kv1.3 (P22001 whole entry): as the sequence (P22001 whole entry) above
Chain of hKv1.5 (P22460 whole entry): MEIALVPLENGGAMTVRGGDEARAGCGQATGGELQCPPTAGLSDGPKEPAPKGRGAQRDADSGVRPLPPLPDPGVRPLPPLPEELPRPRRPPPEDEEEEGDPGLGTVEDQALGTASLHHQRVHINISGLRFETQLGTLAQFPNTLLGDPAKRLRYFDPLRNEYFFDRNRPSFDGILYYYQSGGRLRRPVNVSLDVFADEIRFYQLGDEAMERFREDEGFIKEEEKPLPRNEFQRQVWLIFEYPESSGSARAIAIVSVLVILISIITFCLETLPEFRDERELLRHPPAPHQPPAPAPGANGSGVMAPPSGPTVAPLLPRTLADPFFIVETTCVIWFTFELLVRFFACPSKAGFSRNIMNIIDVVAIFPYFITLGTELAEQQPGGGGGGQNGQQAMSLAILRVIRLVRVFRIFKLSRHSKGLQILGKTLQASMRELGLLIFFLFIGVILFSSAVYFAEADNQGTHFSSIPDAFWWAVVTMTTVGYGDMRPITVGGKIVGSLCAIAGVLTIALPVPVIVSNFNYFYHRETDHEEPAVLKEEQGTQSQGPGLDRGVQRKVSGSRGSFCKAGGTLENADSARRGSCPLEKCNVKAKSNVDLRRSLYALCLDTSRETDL
Chain of hKv1.6 (P17658 whole entry): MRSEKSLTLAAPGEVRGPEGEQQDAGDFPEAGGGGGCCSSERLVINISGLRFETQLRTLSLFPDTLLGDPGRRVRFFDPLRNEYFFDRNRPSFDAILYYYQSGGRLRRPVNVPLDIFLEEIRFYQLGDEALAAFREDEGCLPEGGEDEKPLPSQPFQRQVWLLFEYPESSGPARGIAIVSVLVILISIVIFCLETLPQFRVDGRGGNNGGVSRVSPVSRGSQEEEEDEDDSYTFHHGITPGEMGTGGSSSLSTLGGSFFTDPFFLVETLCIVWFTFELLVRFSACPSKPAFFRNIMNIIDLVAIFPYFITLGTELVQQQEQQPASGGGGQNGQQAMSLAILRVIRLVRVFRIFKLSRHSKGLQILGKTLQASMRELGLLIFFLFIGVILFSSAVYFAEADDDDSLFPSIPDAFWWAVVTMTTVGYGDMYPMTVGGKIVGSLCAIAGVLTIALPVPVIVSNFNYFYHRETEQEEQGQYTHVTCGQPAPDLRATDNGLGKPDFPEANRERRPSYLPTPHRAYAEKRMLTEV
Chain of hKv1.4 (P22459 whole entry): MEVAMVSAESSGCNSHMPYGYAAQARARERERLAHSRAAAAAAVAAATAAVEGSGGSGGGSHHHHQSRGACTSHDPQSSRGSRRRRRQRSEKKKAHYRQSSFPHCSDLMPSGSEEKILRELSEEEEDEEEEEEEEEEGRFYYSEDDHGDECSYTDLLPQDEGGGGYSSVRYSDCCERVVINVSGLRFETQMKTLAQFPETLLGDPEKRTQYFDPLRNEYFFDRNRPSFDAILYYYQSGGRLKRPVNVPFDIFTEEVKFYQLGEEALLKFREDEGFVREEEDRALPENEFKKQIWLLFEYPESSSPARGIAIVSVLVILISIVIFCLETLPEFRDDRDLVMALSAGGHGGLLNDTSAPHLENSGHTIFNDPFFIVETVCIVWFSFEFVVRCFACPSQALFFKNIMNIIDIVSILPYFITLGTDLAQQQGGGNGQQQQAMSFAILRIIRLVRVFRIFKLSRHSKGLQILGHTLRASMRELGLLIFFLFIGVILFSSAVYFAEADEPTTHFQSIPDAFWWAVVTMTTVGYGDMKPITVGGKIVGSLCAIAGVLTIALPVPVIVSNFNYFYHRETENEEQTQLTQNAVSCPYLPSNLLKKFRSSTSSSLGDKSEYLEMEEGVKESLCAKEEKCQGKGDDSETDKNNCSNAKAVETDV
Chain of hKv1.7 (Q96RP8 whole entry): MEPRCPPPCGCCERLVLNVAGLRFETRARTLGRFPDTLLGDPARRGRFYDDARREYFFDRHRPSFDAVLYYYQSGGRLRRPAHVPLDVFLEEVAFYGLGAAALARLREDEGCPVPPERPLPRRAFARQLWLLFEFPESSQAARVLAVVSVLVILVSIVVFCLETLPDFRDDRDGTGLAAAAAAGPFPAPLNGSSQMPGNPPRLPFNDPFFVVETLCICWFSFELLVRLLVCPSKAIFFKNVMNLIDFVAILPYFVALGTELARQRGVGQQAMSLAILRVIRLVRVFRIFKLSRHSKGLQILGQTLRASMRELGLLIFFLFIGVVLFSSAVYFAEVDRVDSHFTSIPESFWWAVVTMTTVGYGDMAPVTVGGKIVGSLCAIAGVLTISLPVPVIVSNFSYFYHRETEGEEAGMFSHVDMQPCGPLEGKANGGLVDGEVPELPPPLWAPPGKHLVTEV
Chain of hKv1.1 (Q09470 whole entry): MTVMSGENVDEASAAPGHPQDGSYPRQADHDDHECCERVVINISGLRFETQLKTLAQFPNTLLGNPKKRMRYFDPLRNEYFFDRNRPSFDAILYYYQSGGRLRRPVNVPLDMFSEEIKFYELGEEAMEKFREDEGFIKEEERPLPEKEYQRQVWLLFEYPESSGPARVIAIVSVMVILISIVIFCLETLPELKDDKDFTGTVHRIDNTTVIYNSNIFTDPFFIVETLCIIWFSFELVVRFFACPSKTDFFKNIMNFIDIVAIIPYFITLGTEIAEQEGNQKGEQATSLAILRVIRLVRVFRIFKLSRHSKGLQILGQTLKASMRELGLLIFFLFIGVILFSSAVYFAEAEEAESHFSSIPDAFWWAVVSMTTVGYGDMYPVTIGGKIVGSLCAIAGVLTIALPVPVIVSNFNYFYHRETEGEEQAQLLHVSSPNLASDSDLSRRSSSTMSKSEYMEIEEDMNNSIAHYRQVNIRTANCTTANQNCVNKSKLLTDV

Compound: Monovalent aKLH HC-ShK(1-35 Q16K) Ab: anti-KLH IgG2 antibody with [Lys16]ShK fused to the C-terminus of one heavy chain
- IC50 (hKv1.5): > 10000 nM
- IC50 (hKv1.7): > 10000 nM
- IC50 (hKv1.4): > 10000 nM
- IC50 (hKv1.2): 7970 nM
- IC50 (hKv1.6): > 616 nM
- IC50 (human Kv1.3): 0.354 nM
- IC50 [1]: 0.839 nM
- IC50 ([2]; read-out: WB (IFNg) IC50): 0.657 nM
- IC50 ([3]; read-out: WB (IL-2) IC50): 0.292 nM
- Exposure (AUC0-inf) normalized for MW, times greater than ShK-L5 ([4]; 150 kDa//4 kDa): about 163 times
- AUC0-t [4, 5]: 481 ± 157 µg·h/mL
- Cmax [4, 5]: 5890 ± 1770 ng/mL
- HL [4, 5]: 32 ± 13.9 h
- Tmax [4, 5]: 32 ± 13.9 h

Compound: CCC[C@@H]1NC(=O)[C@H](CO)NC(=O)[C@H]([C@@H](C)O)NC(=O)[C@H](CCCNC(=N)N)NC(=O)[C@@H]2CSSC[C@@H]3NC(=O)[C@H]([C@@H](C)O)NC(=O)[C@H](CCCCN)NC(=O)[C@H](CCCNC(=N)N)NC(=O)[C@H](CSSC[C@H](NC(=O)[C@H](CCC(=O)O)NC(=O)[C@H](CO)NC(=O)[C@H](C(C)C)NC(=O)[C@@H]4CCCN4C(=O)[C@H]([C@@H](C)CC)NC(=O)[C@H](CC(C)C)NC(=O)[C@H](CC(=O)O)NC(=O)[C@H](CCCCN)NC(=O)[C@@H](NC(=O)[C@@H](NC(=O)[C@@H](N)CCCNC(=N)N)[C@@H](C)O)CSSC[C@@H](C(N)=O)NC(=O)[C@H](CO)NC(=O)CNC3=O)C(=O)N[C@@H]([C@@H](C)O)C(=O)N[C@@H](CC(=O)O)C(=O)N[C@@H]([C@@H](C)CC)C(=O)N[C@@H](CCCCN)C(=O)N2)NC(=O)[C@H](CC(C)C)NC(=O)[C@H](CC(N)=O)NC(=O)[C@H](CC(C)C)NC(=O)[C@H](CCCNC(=N)N)NC(=O)[C@H](Cc2ccc(O)cc2)NC(=O)[C@H](CCCCN)NC1=O [[Lys16, Nva21]HmK-amide] (H-RTCKDLIPVSECTDIKCRTS[Nva]KYRLNLCRKTCGSC-NH2; disulfide 3-35, 12-28, 17-32)
- Kv1.1/Kv1.3 Selectivity Ratio (hKv1.3): 0.025
- IC50 (hKv1.3; Kv1.3 (IWQ) IC50 (nM, Avg)): 23 nM
- IC50 (hKv1.1): 0.58 nM
- WB (IFNg) Potency Relative to ShK [2]: 188.96
- IC50 ([2]; read-out: WB (IFNg) IC50 (nM, Avg)): 9.83 nM
- WB (IL-2) Potency Relative to ShK [3]: 148.53
- IC50 ([3]; read-out: WB (IL-2) IC50 (nM, Avg)): 6.39 nM
